Data on 1 molecule can be found in article PMC7045643, “Allosteric inhibition of CRISPR-Cas9 by bacteriophage-derived peptides” (Genome Biology, 2020).

This test deals with catalytically inactive Cas9 (dCas9). As to the kind of experiment: ChIP-qPCR of dCas9 binding at AAVS1 on-target and off-target sites in Hela cells. The settings on record: AAVS1 on target and pre-determined off-target sites, two biological replicates, Fig. S9. The test is classed as cell-based. Here is the method: For ChIP experiments, low-passage Hela cells were seeded on to 15-cm plates at a density of 4 × 10^6 cells per plate. The next day, a total of 40.5 μg M13 G8PPD or M13 G8PFL plasmid, 20.25 μg 3×Flag-tagged dCas9 plasmid, and 20.25 μg sgRNA plasmid were transfected into cells using Lipofectamine 3000 (Invitrogen). Two biological replicates were performed for each condition. ChIP was performed with Simple ChIP Enzymatic Chromatin IP Kit (Cell Signaling Technology) following the manufacturer’s instructions. After 48 h, the cells were washed once with PBS, and 1.25 mL of 16% formaldehyde (Life Technologies) was added to 20 mL of serum-free DMEM for crosslinking to a final formaldehyde concentration of 1%. After 10 min of crosslinking at room temperature, the cells were harvested for the ChIP assay. The chromatin was sonicated using Branson digital sonifier for 10 cycles of “on/off” pulse with a 30-s interval. Fragmented chromatin was diluted and incubated with 2 μg anti-Flag Chip grade antibody (Sigma, USA) overnight at 4 °C. qPCR with immunoprecipitation-purified DNA as the template was used to analyze the effects of G8Ps on dCas9 binding at the on-target and off-target sites.

B1: M13 G8PFL: full-length M13 phage major coat protein G8P, expressed from plasmid in human cells (protein, UniProt P03619 1-74, looked up)
chain: MKKSVVAKIIAGSTLVIGSSAFAADDATSQAKAAFDSLTAQATEMSGYAWALVVLVVGATVGIKLFKKFVSRAS
modifications: full-length
notes: full-length M13 phage major coat protein G8P, expressed from plasmid in human cells
As to B1, the “binding specificity of dCas9 at on-target site” value is recorded as “did not significantly improve”.
